The values that follow come from publication PMC5468478 (FEBS letters, 2017).

This series concerns the molecule itself. Nature of the series: negative-stain electron microscopy.

B1: Mod5 (enzyme, S. cerevisiae, UniProt P07884 1-428, looked up)
chain: MLKGPLKGCLNMSKKVIVIAGTTGVGKSQLSIQLAQKFNGEVINSDSMQVYKDIPIITNKHPLQEREGIPHHVMNHVDWSEEYYSHRFETECMNAIEDIHRRGKIPIVVGGTHYYLQTLFNKRVDTKSSERKLTRKQLDILESTDPDVIYNTLVKCDPDIATKYHPNDYRRVQRMLEIYYKTGKKPSETFNEQKITLKFDTLFLWLYSKPEPLFQRLDDRVDDMLERGALQEIKQLYEYYSQNKFTPEQCENGVWQVIGFKEFLPWLTGKTDDNTVKLEDCIERMKTRTRQYAKRQVKWIKKMLIPDIKGDIYLLDATDLSQWDTNASQRAIAISNDFISNRPIKQERAPKALEELLSKGETTMKKLDDWTHYTCNVCRNADGKNVVAIGEKYWKIHLGSRRHKSNLKRNTRQADFEKWKINKKETVE
For B1, the binding result is given as “binds”.
